Experimental data reported in publication PMC2945613 (Molecular cell, 2010).

T1: eIF4G1 (yeast eIF4G, wild type) (S. cerevisiae, UniProt P39935 1-952)
T1 sequence (looked up): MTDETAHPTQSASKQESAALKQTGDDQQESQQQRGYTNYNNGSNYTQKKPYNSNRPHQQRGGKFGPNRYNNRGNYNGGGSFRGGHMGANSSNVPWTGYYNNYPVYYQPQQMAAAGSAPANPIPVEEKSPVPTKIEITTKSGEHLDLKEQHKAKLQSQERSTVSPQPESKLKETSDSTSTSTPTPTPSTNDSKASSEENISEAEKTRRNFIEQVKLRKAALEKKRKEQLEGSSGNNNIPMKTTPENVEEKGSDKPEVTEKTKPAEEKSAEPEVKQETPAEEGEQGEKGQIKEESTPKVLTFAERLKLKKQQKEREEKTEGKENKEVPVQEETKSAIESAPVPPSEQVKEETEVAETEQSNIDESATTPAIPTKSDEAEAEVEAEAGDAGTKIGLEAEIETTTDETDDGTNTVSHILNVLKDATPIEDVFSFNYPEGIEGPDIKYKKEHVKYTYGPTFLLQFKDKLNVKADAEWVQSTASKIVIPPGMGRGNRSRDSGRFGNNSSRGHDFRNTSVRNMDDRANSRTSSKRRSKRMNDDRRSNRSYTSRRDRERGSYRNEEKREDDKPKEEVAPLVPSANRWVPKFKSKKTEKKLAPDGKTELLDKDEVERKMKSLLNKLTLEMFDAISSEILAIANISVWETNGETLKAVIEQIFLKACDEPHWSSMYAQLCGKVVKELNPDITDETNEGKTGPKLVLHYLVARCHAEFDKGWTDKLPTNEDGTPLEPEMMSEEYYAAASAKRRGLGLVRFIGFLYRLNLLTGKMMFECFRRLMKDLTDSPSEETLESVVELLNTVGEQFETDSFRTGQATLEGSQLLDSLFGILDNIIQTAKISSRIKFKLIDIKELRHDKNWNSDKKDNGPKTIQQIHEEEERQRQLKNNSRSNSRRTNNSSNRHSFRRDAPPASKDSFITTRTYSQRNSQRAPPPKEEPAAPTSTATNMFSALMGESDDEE

T2: eIF4E•eIF4G complex (S. cerevisiae, UniProt P07260 1-213; P39935 1-952)
T2 sequence (looked up) 1: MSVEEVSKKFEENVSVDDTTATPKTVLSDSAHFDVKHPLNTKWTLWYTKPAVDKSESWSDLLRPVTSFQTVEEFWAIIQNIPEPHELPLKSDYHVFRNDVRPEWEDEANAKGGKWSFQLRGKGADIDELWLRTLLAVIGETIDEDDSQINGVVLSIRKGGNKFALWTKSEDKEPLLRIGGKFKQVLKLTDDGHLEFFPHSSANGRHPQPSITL
T2 sequence (looked up) 2: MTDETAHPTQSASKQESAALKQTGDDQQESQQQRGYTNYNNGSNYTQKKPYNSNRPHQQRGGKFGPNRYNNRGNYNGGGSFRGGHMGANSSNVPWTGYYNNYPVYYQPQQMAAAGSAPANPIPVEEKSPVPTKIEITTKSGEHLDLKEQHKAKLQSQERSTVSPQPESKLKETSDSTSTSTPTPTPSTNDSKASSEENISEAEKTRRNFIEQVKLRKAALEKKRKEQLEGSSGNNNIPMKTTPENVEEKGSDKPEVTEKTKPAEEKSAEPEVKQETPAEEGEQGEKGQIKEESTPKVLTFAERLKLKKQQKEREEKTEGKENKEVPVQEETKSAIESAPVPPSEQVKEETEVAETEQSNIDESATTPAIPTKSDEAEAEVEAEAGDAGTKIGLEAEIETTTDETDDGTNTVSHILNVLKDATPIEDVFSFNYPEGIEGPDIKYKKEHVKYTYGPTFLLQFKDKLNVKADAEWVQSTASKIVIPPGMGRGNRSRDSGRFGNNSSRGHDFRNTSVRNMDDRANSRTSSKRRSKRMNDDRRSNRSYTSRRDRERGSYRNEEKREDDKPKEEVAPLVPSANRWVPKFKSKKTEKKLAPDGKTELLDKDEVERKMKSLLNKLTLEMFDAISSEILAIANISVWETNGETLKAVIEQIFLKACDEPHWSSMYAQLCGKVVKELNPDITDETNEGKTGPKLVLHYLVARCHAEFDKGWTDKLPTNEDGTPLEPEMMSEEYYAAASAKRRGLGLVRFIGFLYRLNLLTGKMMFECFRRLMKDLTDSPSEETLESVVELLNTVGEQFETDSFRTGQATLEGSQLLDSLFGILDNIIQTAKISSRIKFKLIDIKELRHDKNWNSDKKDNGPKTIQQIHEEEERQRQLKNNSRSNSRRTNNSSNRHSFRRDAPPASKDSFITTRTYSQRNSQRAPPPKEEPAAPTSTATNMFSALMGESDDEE


Assays:
Assay in all cases: fluorescence polarisation
[1] = molecular target: eIF1-TAMRA (S. cerevisiae) (UniProt P32911)
eIF4B-Fl (S. cerevisiae) = eIF4B-Fl (S. cerevisiae) (UniProt P34167)
[2] = molecular target: eIF5-TAMRA (S. cerevisiae) (UniProt P38431)
[3] = molecular target: T1, eIF4G1 (yeast eIF4G, wild type)
eIF4E•eIF4G complex = molecular target: T2, eIF4E•eIF4G complex

Sequence of eIF1-TAMRA (S. cerevisiae) (P32911 whole entry): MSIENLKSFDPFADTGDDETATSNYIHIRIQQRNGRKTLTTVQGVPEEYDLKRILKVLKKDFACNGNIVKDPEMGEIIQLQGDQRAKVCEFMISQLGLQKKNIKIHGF
Sequence of eIF5-TAMRA (S. cerevisiae) (P38431 whole entry): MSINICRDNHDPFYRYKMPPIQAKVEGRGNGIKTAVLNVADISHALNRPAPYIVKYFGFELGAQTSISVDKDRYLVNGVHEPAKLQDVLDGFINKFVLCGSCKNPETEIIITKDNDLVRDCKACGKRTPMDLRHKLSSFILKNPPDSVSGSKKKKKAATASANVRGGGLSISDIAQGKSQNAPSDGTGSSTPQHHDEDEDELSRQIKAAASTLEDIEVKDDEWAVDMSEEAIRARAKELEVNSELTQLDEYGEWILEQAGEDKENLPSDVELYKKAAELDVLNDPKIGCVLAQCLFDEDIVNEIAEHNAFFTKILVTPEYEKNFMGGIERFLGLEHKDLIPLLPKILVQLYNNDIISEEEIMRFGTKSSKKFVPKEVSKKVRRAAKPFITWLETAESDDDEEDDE

Row | Kd [1] [nM] | Kd (eIF4B-Fl (S. cerevisiae)) [nM] | Kd [2] [nM] | Kd [3] [nM] | binding result (eIF4E•eIF4G complex) | Molecule
1 | 115 | 380 | 15 | – | – | eIF3 (yeast multisubunit complex)
2 | – | – | – | 200 | binds | eIF4A-TAMRA (enzyme, S. cerevisiae, UniProt P10081 1-395, looked up, TAMRA label, attached by expressed protein ligation) MSEGITDIEESQIQTNYDKVVYKFDDMELDENLLRGVFGYGFEEPSAIQQRAIMPIIEGHDVLAQAQSGTGKTGTFSIAALQRIDTSVKAPQALMLAPTRELALQIQKVVMALAFHMDIKVHACIGGTSFVEDAEGLRDAQIVVGTPGRVFDNIQRRRFRTDKIKMFILDEADEMLSSGFKEQIYQIFTLLPPTTQVVLLSATMPNDVLEVTTKFMRNPVRILVKKDELTLEGIKQFYVNVEEEEYKYECLTDLYDSISVTQAVIFCNTRRKVEELTTKLRNDKFTVSAIYSDLPQQERDTIMKEFRSGSSRILISTDLLARGIDVQQVSLVINYDLPANKENYIHRIGRGGRFGRKGVAINFVTNEDVGAMRELEKFYSTQIEELPSDIATLLN
3 | – | – | – | < 15 | – | eIF4E-Fl (yeast eIF4E S200C labelled with fluorescein maleimide) (natural protein, S. cerevisiae, UniProt P07260 1-213, looked up, fluorescein maleimide on the introduced cysteine (S200C)) MSVEEVSKKFEENVSVDDTTATPKTVLSDSAHFDVKHPLNTKWTLWYTKPAVDKSESWSDLLRPVTSFQTVEEFWAIIQNIPEPHELPLKSDYHVFRNDVRPEWEDEANAKGGKWSFQLRGKGADIDELWLRTLLAVIGETIDEDDSQINGVVLSIRKGGNKFALWTKSEDKEPLLRIGGKFKQVLKLTDDGHLEFFPHCSANGRHPQPSITL
